{
  "source": "paper PMC2921345",
  "key": {"[1]": {"biological_target": "mRFP-Toca-1 (Transducer of Cdc42-dependent actin assembly, wild type) (human)", "sequence (Q5T0N5 whole entry)": "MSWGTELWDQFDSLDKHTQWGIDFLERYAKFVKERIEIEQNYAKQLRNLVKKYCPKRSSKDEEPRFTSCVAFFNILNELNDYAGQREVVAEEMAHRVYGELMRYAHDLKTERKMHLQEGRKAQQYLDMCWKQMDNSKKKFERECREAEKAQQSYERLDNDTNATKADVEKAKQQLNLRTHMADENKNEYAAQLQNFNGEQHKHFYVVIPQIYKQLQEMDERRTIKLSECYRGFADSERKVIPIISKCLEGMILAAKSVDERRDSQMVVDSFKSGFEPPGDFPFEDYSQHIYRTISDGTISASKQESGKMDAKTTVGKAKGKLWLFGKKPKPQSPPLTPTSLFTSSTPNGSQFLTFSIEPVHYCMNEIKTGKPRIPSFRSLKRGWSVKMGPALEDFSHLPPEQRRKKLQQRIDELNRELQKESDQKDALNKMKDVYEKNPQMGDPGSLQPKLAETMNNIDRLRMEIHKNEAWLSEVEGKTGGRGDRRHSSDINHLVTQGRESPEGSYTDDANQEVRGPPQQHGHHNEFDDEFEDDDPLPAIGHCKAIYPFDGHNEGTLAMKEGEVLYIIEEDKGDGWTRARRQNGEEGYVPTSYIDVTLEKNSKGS", "test": "FRET or BRET; frequency-domain FLIM of the GFP donor (LIFA system, 40 MHz) in cells co-expressing GFP and mRFP proteins; lifetime of GFP in cells approximately 2.2 ns"}, "[2]": {"biological_target": "GFP-N-WASP (neuronal Wiskott Aldrich syndrome protein, wild type) (UniProt O08816)", "test": "AP-FRET (acceptor photobleaching FRET) in transfected cells", "details": "mRFP-Toca-1MGD383-385IST and GFP-N-WASP; 36 hr expression; n = 7-10, from 2-3 experiments"}, "[3]": {"biological_target": "mRFP-Toca-1 (Transducer of Cdc42-dependent actin assembly, wild type)", "test": "AP-FRET (acceptor photobleaching FRET) in transfected cells"}},
  "data": [
    {"substance": "GFP-N-WASP (neuronal Wiskott Aldrich syndrome protein, wild type) (from UniProt O08816 1-501) (natural protein)", "values": [
      {"measurement": "GFP donor lifetime (FLIM), in tubules", "setting": "[1]", "result": 1.59, "unit": "ns"},
      {"measurement": "GFP donor lifetime (FLIM), in vesicles", "setting": "[1]", "result": 1.64, "unit": "ns"}
    ]},
    {"substance": "mRFP-Toca-1 (Transducer of Cdc42-dependent actin assembly, wild type) M383I; G384S; D385T", "values": [
      {"measurement": "other: FRET efficiency", "setting": "[2]", "result": 17.5, "unit": "%"}
    ]},
    {"substance": "GFP-N-WASP (neuronal Wiskott Aldrich syndrome protein, wild type) (from UniProt O08816) H208D", "values": [
      {"measurement": "other: FRET efficiency", "setting": "[3]; mRFP-Toca-1 and GFP-N-WASPH208D, 36 hr expression, n = 7-10, from 2-3 experiments", "result": 3.87, "unit": "%"}
    ]},
    {"substance": "Cdc42 (wild type) G12V", "values": [
      {"measurement": "other: FRET efficiency", "setting": "[3]; ROI on tubules, mRFP-Toca-1, HA-N-WASP and GFP-Cdc42G12V co-expressed, 36 hours expression", "result": 9, "unit": "%"},
      {"measurement": "other: FRET efficiency", "setting": "[3]; ROI on vesicles, mRFP-Toca-1, HA-N-WASP and GFP-Cdc42G12V co-expressed, 36 hours expression", "result": 0.03, "unit": "%"}
    ]}
  ]
}
